In patent US20110287512:

Assays:
Test in all cases: cell_activity
[1] = system: ZFN7264 linker TGLPKPKP (synthetic); conditions: yeast, partner ZFN7263; host on 0-bp gap = 1.00
[2] = system: ZFN7264 linker TSRPRPKP (synthetic); conditions: yeast, partner ZFN7263; host on 0-bp gap = 1.00
[3] = system: ZFN7264 linker TGGGGSQKP (synthetic); conditions: yeast, partner ZFN7263; host on 0-bp gap = 1.00
[4] = system: ZFN7264 (host, center linker TGSQKP) (synthetic); conditions: yeast, partner ZFN7263; host on 0-bp gap = 1.00; host data same as Table 9
[5] = system: ZFN7264 linker 1e (synthetic); conditions: yeast, partner ZFN7263; host on 0-bp gap = 1.00
[6] = system: ZFN7263 linker TPRPPIPKP (synthetic); conditions: yeast, partner ZFN7264; host on 0-bp gap = 1.00
[7] = system: ZFN7263 linker TPNRCPPTKP (synthetic); conditions: yeast, partner ZFN7264; host on 0-bp gap = 1.00
[8] = system: ZFN7263 linker TPLCQRPMKQKP (synthetic); conditions: yeast, partner ZFN7264; host on 0-bp gap = 1.00
[9] = system: ZFN7263 linker TYPRPLLAKP (synthetic); conditions: yeast, partner ZFN7264; host on 0-bp gap = 1.00
[10] = system: ZFN7263 (host, center linker TGSQKP) (synthetic); conditions: yeast, partner ZFN7264; host on 0-bp gap = 1.00
[11] = system: ZFN7263 linker TGGGGSQKP (synthetic); conditions: yeast, partner ZFN7264; host on 0-bp gap = 1.00
[12] = system: ZFN7263 linker TQRPQIPPKP (synthetic); conditions: yeast, partner ZFN7264; host on 0-bp gap = 1.00

Sequence	activity (normalized MEL-1) [1]	activity (normalized MEL-1) [2]	activity (normalized MEL-1) [3]	activity (normalized MEL-1) [4]	activity (normalized MEL-1) [5]	activity (normalized MEL-1) [6]	activity (normalized MEL-1) [7]	activity (normalized MEL-1) [8]	activity (normalized MEL-1) [9]	activity (normalized MEL-1) [10]	activity (normalized MEL-1) [11]	activity (normalized MEL-1) [12]
AAAGCGCTGCTCCG (double strand) [7264 yeast half-site gap CT]	0.09	0.1	0.15	0.08	0.11	–	–	–	–	–	–	–
AAAGCGTAGCTCCG (double strand) [7264 yeast half-site gap TA]	0.08	0.07	0.09	0.02	0.09	–	–	–	–	–	–	–
ACTCTGATTGGAAG (double strand) [7263 yeast half-site gap AT]	–	–	–	–	–	0.03	0.03	0.01	0.05	0.02	0.02	0.02
ACTCTGCTTGGAAG (double strand) [7263 yeast half-site gap CT]	–	–	–	–	–	0.04	0.06	0.03	0.05	0.08	0.04	0.03
